From publication PMC11290353

Molecular target: RNA Pol II large subunit (CTD) (UniProt P08775)
Test: HA IP; blot Pol II S5P, S2P
Details: reference: HA-CMTR1 wild type; sites S26,S28,T30,S31,S46,S49,S51,S53,S55,T57,S63,S64,S66,S75,S89

## CMTR1 (from UniProt Q8N1G2) HA-CMTR1 15A
  binding against the reference: weaker
